Square brackets hold non-standard residues; d marks the D form. Ends that are not written are not given here.
Target: T1, binding of eIF4E to eIF4G (Homo sapiens, UniProt P06730)
T1 construct: endogenous in cells; host or cells: OVCAR-3 cell lysate
Experiment: Immunoprecipitation with eIF4E antibody and Western blot with eIF4G antibody, OVCAR-3 cell lysate incubated with peptide
Settings: peptide 3 micromoles per liter, 250 micrograms OVCAR-3 cell lysate
Procedure: FIGS. 1A-1G. 4EBP peptides bind eIF4E and inhibit binding of eIF4E to eIF4G. (FIG. 1A) Sequences of peptides comprising residues 49 to 68 of 4EBP1 and 4EBP2. (FIG. 1B) Biotinylated peptides (3 micromoles per liter) were incubated with 250 micrograms of OVCAR-3 cell lysate. Peptides were pulled-down using streptavidin-agarose. Precipitates (P) and supernatants (S) were analyzed by Western blot using eIF4E antibody. In (FIG. 1C), immunoprecipitation was performed using eIF4E antibody, and Western blot performed using eIF4G antibody. (FIG. 1D) Sequences of wild-type and mutant 4EBP peptides fused to TAT (mutant residues are highlighted). (FIG. 1E) OVCAR-3 cells were treated with biotinylated peptides (3 micromoles per liter, final concentration) for 16 hours. Internalized peptides were detected by staining fixed cells with Texas Red-conjugated streptavidin. Nuclei were visualized by staining with 4′,6-Diamidino-2-Phenylindole (DAPI). (FIGS. 1F and 1G) OVCAR-3 cell lysates were incubated with peptides as described for FIG. 1B. In (FIG. 1F), immunoprecipitation was performed using streptavidin-agarose and Western blot performed using eIF4E antibody. In (FIG. 1G), immunoprecipitation was performed using eIF4E antibody, and Western blot performed using eIF4G antibody.
FIGS. 3A-3H. Uptake, binding and inhibitory effects of [DLys6]GnRH-4EBP fusion peptides. (FIG. 3A) Sequences of [DLys6]GnRH, and wild-type and mutant 4EBP1 peptides fused to the agonist. (FIG. 3B) Western blot of GnRH-RI levels in OVCAR-3, ES-2, MDA-MB-231, BJ, HUVEC and SKOV3 cells. (FIG. 3C) Detection of biotinylated peptides in OVCAR-3 and SKOV3 by Texas Red-conjugated streptavidin at 16 hours after peptide addition (3 micromoles per liter). In (FIGS. 3D and 3E), biotinylated peptides were incubated with OVCAR-3 cell lysate as described in FIG. 1. In (FIG. 3D), peptide was pulled down using streptavidin-agarose. Precipitates (P) and supernatants (S) were analyzed by Western blot using eIF4E antibody. In (FIG. 3E), immunoprecipitation was performed using eIF4E antibody, and Western blot performed using eIF4G antibody. (FIG. 3F) R-Luc and F-Luc activities were assayed in ES-2-DualLuc cells at 6 hours after addition of the indicated concentrations of peptides, and are expressed relative to the respective luciferase activities in cells incubated without peptide. Shown are results of triplicate assays performed independently two times, and the statistical significance of differences in relative R-Luc and F-Luc activities in cells treated with peptide at a concentration of 10 micromoles per liter (FIG. 3G) Cells of GnRH-RI-positive and -negative lines were treated with the indicated concentrations of peptides. […]

T1 sequence (P06730 2-217 limits assumed): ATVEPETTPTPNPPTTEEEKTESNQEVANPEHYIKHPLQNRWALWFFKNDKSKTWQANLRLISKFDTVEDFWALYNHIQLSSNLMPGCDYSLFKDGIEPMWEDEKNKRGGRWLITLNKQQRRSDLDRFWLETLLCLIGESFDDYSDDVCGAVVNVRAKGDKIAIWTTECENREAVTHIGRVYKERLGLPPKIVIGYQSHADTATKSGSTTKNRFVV

In the case of “[DLys6]GnRH: GnRH agonist with a D-amino acid substitution at position 6; GnRH-RI-targeting moiety (QHWSY[dK]LRPG; not fully specified (residue 1, C-terminus); ends and bridges not checked)”, the “inhibition of eIF4E binding to eIF4G” value is reported as “not inhibited”.

From patent publication US20110319338A1, “PEPTIDES THAT BIND EUKARYOTIC TRANSLATION INITIATION FACTOR 4E” (The Board of Regents of the University of Texas System, priority 2008, published 2011)
